Drawing on publication PMC10246534 (Nature Communications, 2023), this text covers Kd for 2 molecules.

In the assay the target is Delta RBD WT (SARS-CoV-2, Delta variant (B.1.617.2), L452R). As to the kind of experiment: SPR; Biacore T200; […]; HBS-EP, 25 °C; 1:1 binding model. The following applies: both partners purified.

B1: imdevimab (antibody, V domains shown)
VH: QVQLVESGGGVVQPGRSLRLSCAASGFTFSNYAMYWVRQAPGKGLEWVAVISYDGSNKYYADSVKGRFTISRDNSKNTLYLQMNSLRTEDTAVYYCASGSDYGDYLLVYWGQGTLVTVSS
VL: QSALTQPASVSGSPGQSITISCTGTSSDVGGYNYVSWYQQHPGKAPKLMIYDVSKRPSGVSNRFSGSKSGNTASLTISGLQSEDEADYYCNSLTSISTWVFGGGTKLTVL
notes: source: Regeneron
A word on the Kd: it is the constant that tells how readily two partners part at equilibrium. Read a low Kd as higher affinity. Molecule B1 had a Kd of 9.4 nM.

B2: casirivimab (antibody, V domains shown)
VH: QVQLVESGGGLVKPGGSLRLSCAASGFTFSDYYMSWIRQAPGKGLEWVSYITYSGSTIYYADSVKGRFTISRDNAKSSLYLQMNSLRAEDTAVYYCARDRGTTMVPFDYWGQGTLVTVSS
VL: DIQMTQSPSSLSASVGDRVTITCQASQDITNYLNWYQQKPGKAPKLLIYAASNLETGVPSRFSGSGSGTDFTFTISGLQPEDIATYYCQQYDNLPLTFGGGTKVEIK
notes: source: Regeneron
Consider B2, for which the Kd came out at 0.36 nM.
